Data on 1 molecule can be found in patent US20160324962A1, “COMPOSITIONS AND METHODS FOR TREATING SARCOMA” (MEDIMMUNE, LLC, priority 2013, published 2016).

For data set [1], the system named is RD-ES (Ewing's sarcoma) xenografts. The data set is described as follows: Xenograft efficacy study in mice. The class given is in vivo. From the text:
(§1) Although proliferation of SK-ES-1 and SJCRH30 cells was inhibited by MEDI-573 in vitro in the absence of exogenous IGFs, the in vivo growth of these two models was not effected by MEDI-573 treatment.
(§2) The combination treatments were tolerated as no significant body weight loss was observed (FIG. 17B).
For in vivo efficacy studies, five million sarcoma cells in 50% matrigel were inoculated subcutaneously into each female athymic nude mice. When tumors reach approximately 150-200 mm^3, mice were randomly assigned into groups (10 mice per group). MEDI-573 was administrated intraperitoneally twice per week at indicated doses. The dose regimen for AZD2014 was oral once every day, for rapamycin was intraperitoneal injection every 3 days. Tumor volumes were measured twice weekly with calipers. Tumor growth inhibition was calculated on the last day of study relative to the initial and final mean tumor volume of the control group.

Data set [2] relates to SAOS2 cells. The data set is described as follows: In vitro cell proliferation (CellTiter-Glo), no exogenous IGF. It counts as cell-based. The settings on record: 3 days. On the procedure:
(§3) To determine the effect of treatment with MEDI-573 antibody on the growth of tumor cells, three rhabdomyosarcoma cell lines (RD, SJCRH30, and Hs729); three Ewing's sarcoma cell lines (RD-ES, TC-71, and SK-ES-1), and four osteosarcoma cell lines (SJSA-1, KHOS, MG-63, and SAOS2) were treated with MEDI-573, an anti-IGF antibody, in the absence of exogenous IGF-1 or IGF-2.
(§4) Sarcoma cell lines were cultured overnight in regular growth medium. The following day, medium containing 0.1% charcoal stripped fetal bovine serum (FBS) was added and the cells incubated overnight. The next day, cells were treated with various amounts of MEDI-573 and the cultures incubated for 3 days. Proliferation was quantified using the CellTiter-Glo (CTG) reagent (Promega, Madison, Wis.).
For orientation: ATP-based viability assays read luminescence as a measure of living cells.

In data set [3] the test system is RD-ES cells. The data set is described as above. It counts as cell-based. The settings on record: 3 days. The method, then:
as §3, §4

Data set [4] has as its system TC-71 cells. Described as above. The settings on record: 3 days. The class given is cell-based. On the procedure: as §3, §4
Data set [5] has as its system SJCRH30 cells. The data set is described as above. The class given is cell-based. The conditions noted are these: 3 days. On the procedure:
as §3, §4

The test system of data set [6] is KHOS cells. The description is as above. The class given is cell-based. The settings on record: 3 days. On the procedure: as §3, §4
Data set [7] relates to Hs729 cells. The data set is described as above. The class given is cell-based. The conditions noted are these: 3 days. The method, then:
as §3, §4

The subject of data set [8] is MG-63 cells. Described as above. The settings on record: 3 days. The class given is cell-based. The method, then:
as §3, §4

Data set [9] concerns SK-ES-1 cells. The data set is described as above. The conditions noted are these: 3 days. It counts as cell-based. The method, then: as §3, §4
The nature of data set [10]: Body weight / tolerability in xenograft mice. It counts as in vivo. The conditions noted are these: MEDI-573 alone.
Text: as §1, §2

For data set [11], the target named is murine IGF-1 (Mus musculus, UniProt P05017). The data set is described as follows: Binding affinity.
Data set [12] concerns IGF 1R phosphorylation. The data set is described as follows: IGF-stimulated phosphorylation in engineered NIH-3T3 cell lines. It counts as cell-based. The conditions noted are these: NIH-3T3 cell lines expressing human IGF-1R and human IGF-1/-2. From the text: (§5) MEDI 573 selectively binds to human insulin-like growth factor (hIGF)-I and hIGF-2 and […]. MEDI-573 targets the IGF-1 and IGF-2 ligands and thereby inhibits IGF-mediated signal transduction. […] Furthermore, MEDI-573 has potential to achieve this without perturbing glucose homeostasis, which has been an adverse effect observed with investigational agents that target IGF 1R. The results of in vitro studies have shown that MEDI-573 inhibited both IGF-1 and IGF-2-stimulated phosphorylation of IGF 1R and that of downstream signaling proteins including Akt and MAPK in a number of engineered mouse embryonic fibroblast NIH-3T3 cell lines transfected to express human IGF-1R and either human IGF-1/-2. Furthermore, MEDI-573 inhibited autocrine phosphorylation of these signaling molecules.

For data set [13], the system named is clone P12 (P12) tumors. The data set is described as follows: Growth of implanted tumors in mice. It counts as in vivo. The conditions noted are these: P12 tumors overexpressing hIGF-1 and hIGF-1R.
Text: as §5

Data set [14] has as its system clone 32 (C32) tumors. The data set is described as follows: Growth of implanted tumors in mice. The class given is in vivo. The conditions noted are these: C32 tumors overexpressing hIGF II and hIGF-1R.
Text: as §5

Data set [15] concerns p4EBP1. Description: In vivo mechanism of action study, immunoblot of tumors. The arrangement: species or system mice. On the procedure: (§6) The in vivo effects of MEDI-573 on IGF signaling were also examined in sarcoma xenografts. To be consistent with in vitro experiments, in vivo pharmacodynamic studies were performed in two ways. First, the effect of MEDI-573 on signaling that was induced by IGF ligands, which were secreted by tumors in an autocrine manner, was examined. A single dose of MEDI-573 was given to mice bearing ˜400 mm^3 RD-ES, SJSA-1, or KHOS/NP tumors.
(§7) IGF-1/-2 injection did change the baseline level of p4EBP-1.
(§8) For in vivo mechanism of action (MOA) studies, when tumors reached approximately 400 mm^3, a single dose of MEDI-573 was given. Tumor and plasma samples were collected 4 hr after dosing to assess the effect of MEDI-573 on autocrine IGF signaling. In another set of mice, 6 hr after MEDI-573 dosing, human IGF-1 or IGF-2 was injected by tail-vein. Tumor and plasma samples were collected 15 min after IGFs injection to assess the effect of MEDI-573 on IGF-1/-2 induced signaling.
For orientation: In western blotting, separated proteins are transferred to a membrane and probed.

Data set [16] has as its system pAKT. Described as above. The arrangement: species or system mice. On the procedure:
as §6, §7, §8

The mark [17] stands for this setting: RD-ES tumors ~400 mm^3, single dose, 4 hr after dosing.
Setting [18] is: RD-ES-bearing mice injected with human IGF-1/-2, MEDI-573 pretreatment.

Chain of murine IGF-1 (P05017 1-118 limits assumed): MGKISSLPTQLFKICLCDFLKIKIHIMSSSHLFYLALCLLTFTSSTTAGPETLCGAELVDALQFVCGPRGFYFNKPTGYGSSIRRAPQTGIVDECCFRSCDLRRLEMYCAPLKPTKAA

B1: MEDI-573: fully human monoclonal IgG2 lambda antibody that binds IGF-2 with cross reactivity to IGF-1; hybridoma 7.159.2, ATCC PTA-7424 (antibody)
heavy: QVQLVQSGAEVKKPGASVKVSCKASGYTFTSYDINWVRQATGQGLEWMGWMNPNSGNTGYAQKFQGRVTMTRNTSISTAYMELSSLRSEDTAVYYCARDPYYYYYGMDVWGQGTTVTVSSASTKGPSVFPLAPCSRSTSESTAALGCLVKDYFPEPVTVSWNSGALTSGVHTFPAVLQSSGLYSLSSVVTVPSSNFGTQTYTCNVDHKPSNTKVDKTVERKCCVECPPCPAPPVAGPSVFLFPPKPKDTLMISRTPEVTCVVVDVSHEDPEVQFNWYVDGVEVHNAKTKPREEQFNSTFRVVSVLTVVHQDWLNGKEYKCKVSNKGLPAPIEKTISKTKGQPREPQVYTLPPSREEMTKNQVSLTCLVKGFYPSDIAVEWESNGQPENNYKTTPPMLDSDGSFFLYSKLTVDKSRWQQGNVFSCSVMHEALHNHYTQKSLSLSPGK
light: QSVLTQPPSVSAAPGQKVTISCSGSSSNIENNHVSWYQQLPGTAPKLLIYDNNKRPSGIPDRFSGSKSGTSATLGITGLQTGDEADYYCETWDTSLSAGRVFGGGTKLTVLGQPKAAPSVTLFPPSSEELQANKATLVCLISDFYPGAVTVAWKADSSPVKAGVETTTPSKQSNNKYAASSYLSLTPEQWKSHRSYSCQVTHEGSTVEKTVAPTECS
As a reminder, the IC50 is the concentration needed to halve the response being measured. With B1, the tumor growth inhibition is recorded as 52% in [1] (RD-ES xenograft model, AZD2014 combination study (FIG. 16A)); 59% in data set [1] (RD-ES xenograft model, rapamycin combination study (FIG. 17A)); 25% in data set [1] (RD-ES xenografts, 10 mg/kg twice weekly intraperitoneally); 44% in data set [1] (RD-ES xenografts, 30 mg/kg twice weekly intraperitoneally); 52% in data set [1] (RD-ES xenografts, 60 mg/kg twice weekly intraperitoneally). Further, the “IC50 (μM)” value in data set [2], in data set [6], in [7] and in data set [8] was “Inactive” each time. In addition, the IC50 in data set [3] turned out to be 6.9 µM; in data set [4] it was 2.7 µM; in [5], 3.2 µM; in data set [9], 3.2 µM. Further, in data set [10], the body weight result is “no loss of body weight was observed”. Further, the binding affinity result in [11] is “low binding affinity”. Besides, the “IGF-1 and IGF-2-stimulated phosphorylation of IGF 1R” value in data set [12] is “inhibited”. Moreover, the “growth of implanted tumors” value in data set [13] and in data set [14] was “significantly inhibited the growth” each time. Besides, the “phosphorylated p4EBP1 in tumors” value was “not in KHOS/NP tumors” in data set [15] (KHOS/NP tumors, single dose) and “inhibited” in data set [15] (setting [17]). In addition, the p4EBP-1 in tumors result in data set [15] (setting [18]) was “inhibited p4EBP-1 even below the baseline level”. Further, the “autophosphorylation of pAKT in tumors” value in data set [16] (KHOS/NP tumors, single dose) was “not in KHOS/NP tumors”; in data set [16] (setting [17]), “inhibited autophosphorylation”. For the same molecule, the “IGF-induced pAKT in tumors” value in data set [16] (setting [18]) is listed as “dramatic reduction”.
